In the supplement of paper PMC10567573 one finds protein stability index data, which are given here for 94 variants.

B1: RSPH3 (parent)
chain: MTVKPAKAASLARNLAKRRRTYLG
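Further: lentivirally expressed fusions sorted by FACS into six bins by GFP to DsRed ratio, PSI derived from sequencing read proportions per bin multiplied by bin number.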

Variants of B1 are the subject of this data set. The data set is described as follows: protein stability index of a GFP-peptide fusion (GPS, HEK-293T) (PSI 1-6); higher = more stable. The settings on record: c terminus: a fixed tail appended.
MTVKPAKAASLARNLAKWRRTYLG: the protein stability index was found to be 2.55.
Next, MTVKPAKAASLARNLAKRRRTYVG: 2.96; MTVKPAKAASLARNLAKRRRTYWG: 3.34; MTVKPAKAASLARNLAKRRRTYSG: 4.5.
For the variant MTVKPAKAASLARNLAKRRRTYQG, the protein stability index worked out at 4.34.
With MTVKPAKAASLARNLAKRRRTYGG, the protein stability index stood at 4.13.
Take MTVKPAKAASLARNLAKRRRTYFG: the protein stability index was 3.2.
As to MTVKPAKAASLARNLAKRRRTYNG, the protein stability index was 3.5.
MTVKPAKAASLARNLAKRRRTYAG: the protein stability index was 3.98.
Next, MTVKPAKAASLARNLAKRRRTYDG: 3.71; MTVKPAKAASLARNLAKRRRTYPG: 3.42; MTVKPAKAASLARNLAKRRRTYIG: 4.26.
On to MTVKPAKAASLARNLAKRRRTYYG, for which the protein stability index turned out to be 3.
Next, MTVKPAKAASLARNLAKRRRTYCG: 3.28; MTVKPAKAASLARNLAKRRRTYEG: 4.43.
For the variant MTVKPAKAASLARNLAKRRRTYTG, the protein stability index was 4.09.
As for MTVKPAKAASLARNLAKRRRTYKG, the protein stability index came to 3.5.
As for MTVKPAKAASLARNLAKRRRTYRG, the protein stability index was determined as 3.61.
Consider MTVKPAKAASLARNLAKRRRTYHG, for which the protein stability index was 3.9.
With MTVKPAKAASLARNLAKRRRTYMG, the protein stability index was 3.53.
The same measure for MTVKPAKAASLARNLAKRRRTYLR: 3.46; for MTVKPAKAASLARNLAKRRRTYLT: 3.42; for MTVKPAKAASLARNLAKRRRTYLD: 2.04.
The same measure for MTVKPAKAASLARNLAKRRRTYLM: 2.38; for MTVKPAKAASLARNLAKRRRTYLN: 3.18; for MTVKPAKAASLARNLAKRRRTYLP: 3.63.
On to MTVKPAKAASLARNLAKRRRTYLY, for which the protein stability index was 2.42.
As for MTVKPAKAASLARNLAKRRRTYLA, the protein stability index was determined as 3.33.
Next, MTVKPAKAASLARNLAKRRRTYLE: 3.54; MTVKPAKAASLARNLAKRRRTYLQ: 2.94; MTVKPAKAASLARNLAKRRRTYLK: 2.68.
Turning to MTVKPAKAASLARNLAKRRRTYLV, the protein stability index is 2.17.
Next, MTVKPAKAASLARNLAKRRRTYLS: 3.15; MTVKPAKAASLARNLAKRRRTYLI: 2.35; MTVKPAKAASLARNLAKRRRTYLL: 2.3.
On to MTVKPAKAASLARNLAKRRRTYLC, for which the protein stability index was determined as 2.64.
Take MTVKPAKAASLARNLAKRRRTYLF: the protein stability index was determined as 1.97.
On to MTVKPAKAASLARNLAKRRRTYLH, for which the protein stability index amounted to 2.7.
Consider MTVKPAKAASLARNLAKRRRTYLW, for which the protein stability index amounted to 1.63.
MTVKPAKAASLARNLAKRRRTNLG: the protein stability index amounted to 3.46.
Regarding MTVKPAKAASLARNLAKRRRTFLG, the protein stability index was 3.25.
In the case of MTVKPAKAASLARNLAKRRRTILG, the protein stability index came out at 3.37.
Turning to MTVKPAKAASLARNLAKRRRTTLG, the protein stability index amounted to 3.88.
For MTVKPAKAASLARNLAKRRRTWLG, the protein stability index was 3.06.
On to MTVKPAKAASLARNLAKRRRTDLG, for which the protein stability index turned out to be 3.31.
Consider MTVKPAKAASLARNLAKRRRTHLG, for which the protein stability index was found to be 3.84.
Next, MTVKPAKAASLARNLAKRRRTRLG: 3.03; MTVKPAKAASLARNLAKRRRTALG: 3.81.
Next, MTVKPAKAASLARNLAKRRRTMLG: 2.9; MTVKPAKAASLARNLAKRRRTSLG: 3.23.
As for MTVKPAKAASLARNLAKRRRTPLG, the protein stability index worked out at 3.26.
With MTVKPAKAASLARNLAKRRRTGLG, the protein stability index was 4.24.
Consider MTVKPAKAASLARNLAKRRRTELG, for which the protein stability index was found to be 3.12.
In the case of MTVKPAKAASLARNLAKRRRTKLG, the protein stability index stood at 3.85.
As for MTVKPAKAASLARNLAKRRRTQLG, the protein stability index stood at 3.93.
Turning to MTVKPAKAASLARNLAKRRRTVLG, the protein stability index is 3.99.
Take MTVKPAKAASLARNLAKRRRTCLG: the protein stability index was determined as 3.63.
For the variant MTVKPAKAASLARNLAKRSRTYLG, the protein stability index is 2.51.
On to MTVKPAKAASLARNLAKRFRTYLG, for which the protein stability index came out at 1.23.
MTVKPAKAASLARNLAKRDRTYLG: the protein stability index is 2.88.
On to MTVKPAKAASLARNLAKRTRTYLG, for which the protein stability index stood at 2.52.
In the case of MTVKPAKAASLARNLAKRNRTYLG, the protein stability index stood at 2.37.
In the case of MTVKPAKAASLARNLAKRHRTYLG, the protein stability index worked out at 1.51.
MTVKPAKAASLARNLAKRCRTYLG: the protein stability index is 1.6.
Consider MTVKPAKAASLARNLAKRWRTYLG, for which the protein stability index worked out at 1.64.
Consider MTVKPAKAASLARNLAKRPRTYLG, for which the protein stability index stood at 1.86.
Regarding MTVKPAKAASLARNLAKRERTYLG, the protein stability index was found to be 3.49.
Regarding MTVKPAKAASLARNLAKRKRTYLG, the protein stability index amounted to 2.86.
As for MTVKPAKAASLARNLAKRVRTYLG, the protein stability index is 1.45.
With MTVKPAKAASLARNLAKRIRTYLG, the protein stability index turned out to be 1.77.
For the variant MTVKPAKAASLARNLAKRMRTYLG, the protein stability index was 3.63.
As to MTVKPAKAASLARNLAKRLRTYLG, the protein stability index stood at 2.05.
MTVKPAKAASLARNLAKRYRTYLG: the protein stability index is 2.42.
The same measure for MTVKPAKAASLARNLAKRGRTYLG: 2.85; for MTVKPAKAASLARNLAKRQRTYLG: 2.62; for MTVKPAKAASLARNLAKRARTYLG: 1.79.
Regarding MTVKPAKAASLARNLAKRRETYLG, the protein stability index is 2.81.
With MTVKPAKAASLARNLAKRRDTYLG, the protein stability index turned out to be 3.08.
For the variant MTVKPAKAASLARNLAKRRNTYLG, the protein stability index worked out at 2.94.
In the case of MTVKPAKAASLARNLAKRRITYLG, the protein stability index stood at 2.17.
For MTVKPAKAASLARNLAKRRVTYLG, the protein stability index came out at 1.63.
Next, MTVKPAKAASLARNLAKRRPTYLG: 2.81; MTVKPAKAASLARNLAKRRYTYLG: 1.51; MTVKPAKAASLARNLAKRRKTYLG: 3.12.
Consider MTVKPAKAASLARNLAKRRMTYLG, for which the protein stability index is 2.72.
Next, MTVKPAKAASLARNLAKRRATYLG: 2.41; MTVKPAKAASLARNLAKRRTTYLG: 2.61; MTVKPAKAASLARNLAKRRFTYLG: 1.96.
Take MTVKPAKAASLARNLAKRRSTYLG: the protein stability index turned out to be 2.61.
MTVKPAKAASLARNLAKRRCTYLG: the protein stability index worked out at 1.91.
In the case of MTVKPAKAASLARNLAKRRWTYLG, the protein stability index is 2.2.
With MTVKPAKAASLARNLAKRRHTYLG, the protein stability index amounted to 2.59.
For MTVKPAKAASLARNLAKRRQTYLG, the protein stability index worked out at 3.83.
As for MTVKPAKAASLARNLAKRRLTYLG, the protein stability index was 1.81.
